Reference: article PMC12504095

How the values were obtained:
[1] = target: Streptococcus pyogenes alpha-enolase (SEn) (S. pyogenes strain AP53) (UniProt P69949); experiment: SPR; SEn immobilised on CM5 chip; tPA analyte 0-2000 nM in HBS-EP+ pH 7.4; 10 uL/min, 600 s association, 300 s dissociation; affinity (steady-state) fit
[2] = target: Streptococcus pyogenes alpha-enolase (SEn) (S. pyogenes strain AP53) (UniProt P69949); experiment: flow cytometry on DOPG vesicles; SEn-constituted DOPG vesicles (BSA-blocked) incubated with 0.8 uM tPA in PBS for 1 h; mouse anti-tPA and Alexa Fluor 488 anti-mouse IgG
[3] = target: Streptococcus pyogenes alpha-enolase (SEn) (S. pyogenes strain AP53) (UniProt P69949); experiment: cryo-EM structure; SEn reconstituted in DOPG vesicles, extruded to small unilamellar vesicles; octamer in the bilayer

Substance	Kd [1] [nM]	percent DOPG-SEn-tPA complex (FITC-positive vesicles) [2] [%]	stoichiometry N [3]
recombinant human tissue-type plasminogen activator (tPA) (enzyme)	161	70	
Streptococcus pyogenes alpha-enolase (SEn) (from UniProt P69949 1-435) (enzyme)			8
